This is an account of results in patent US20250327089A1.

What is called EC50 is the concentration giving half of the maximal effect. Read a high EC50 as a need for much substance.

This assay addresses target receptor on brush border membrane vesicles (BBMVs) from C. includens (Pseudoplusia includens (C. includens)).

“PtIP-65Aa polypeptide (Pteridophyta Insecticidal Protein-65Aa)” showed an EC50 of 14 nM.
